Experimental data: patent US20240141072A1 (published 2024)
Changes are numbered by the printed parent chain.

T1: biotinylated human DLL3 protein expressed as a human IgG1 fusion protein (human, UniProt Q9NYJ7 27-492, limits assumed, biotinylated)
T1 sequence: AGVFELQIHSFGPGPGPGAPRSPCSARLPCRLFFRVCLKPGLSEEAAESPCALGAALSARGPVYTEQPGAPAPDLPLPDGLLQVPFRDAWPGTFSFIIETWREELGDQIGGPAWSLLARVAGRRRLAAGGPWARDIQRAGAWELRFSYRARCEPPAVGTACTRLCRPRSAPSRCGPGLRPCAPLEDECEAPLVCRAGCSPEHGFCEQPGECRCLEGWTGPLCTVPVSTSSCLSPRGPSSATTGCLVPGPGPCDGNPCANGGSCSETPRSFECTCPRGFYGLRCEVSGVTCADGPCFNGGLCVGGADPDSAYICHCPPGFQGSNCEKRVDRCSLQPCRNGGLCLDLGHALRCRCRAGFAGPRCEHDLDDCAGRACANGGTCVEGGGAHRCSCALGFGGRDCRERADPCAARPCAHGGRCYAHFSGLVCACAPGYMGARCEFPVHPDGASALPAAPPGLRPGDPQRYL

B1: 3A05 anti-DLL3 trispecific protein (other)
chain: EVQLVESGGGLVQPGGSLTLSCAASGSSVSFLSMAWYRQAPGKKRELVAGISEAGSTDYIDSVKGRFTISRDNAKNSVYLQMNSLRAEDTAVYYCYAYRWRTRYTYWGQGTLVTVSS
notes: not shown: linker 1808, anti-albumin sdAb, linker 1808, anti-CD3 fragment, His6 1819
B2: 3A06 anti-DLL3 trispecific protein (other)
chain: B1 chain with S21R, S28K, E53A, A54D, I60V, R101T, T102R
notes: as for B1
B3: 3A08 anti-DLL3 trispecific protein (other)
chain: B1 chain with S30G, E53A, A54D, D61R
notes: as for B1
B4: 3A09 anti-DLL3 trispecific protein (other)
chain: B1 chain with E53A, A54D, T57V, R101T, T105I
notes: as for B1
B5: 3A010 anti-DLL3 trispecific protein (other)
chain: B1 chain with S28R, E53A, A54D, D58L, R101T, Y104R
notes: as for B1
B6: 3B01 anti-DLL3 trispecific protein (other)
chain: B1 chain with E53G, A54D, R101T
notes: as for B1
B7: 3B02 anti-DLL3 trispecific protein (other)
chain: B1 chain with S30Q, E53A, A54D, D61N
notes: as for B1
B8: 3B04 anti-DLL3 trispecific protein (other)
chain: B1 chain with S28N, E53A, A54R, R99H, R101T
notes: as for B1
B9: 3B05 anti-DLL3 trispecific protein (other)
chain: B1 chain with A23V, S30K, E53A, A54D, D58T, R101T, Y104R
notes: as for B1
B10: 3B06 anti-DLL3 trispecific protein (other)
chain: B1 chain with S27K, E53K, A54D, R101T
notes: as for B1
B11: 3B07 anti-DLL3 trispecific protein (other)
chain: B1 chain with S28R, E53A, A54D, D58T, R101T
notes: as for B1
B12: 3B09 anti-DLL3 trispecific protein (other)
chain: B1 chain with S28H, E53A, A54N, R101T, T105A
notes: as for B1
B13: 3B010 anti-DLL3 trispecific protein (other)
chain: B1 chain with E53R, A54D, R101V
notes: as for B1
B14: 3B011 anti-DLL3 trispecific protein (other)
chain: B1 chain with E53A, A54D, T57A, R101V
notes: as for B1
B15: 3C01 anti-DLL3 trispecific protein (other)
chain: B1 chain with S30R, E53A, A54H, R101S
notes: as for B1
B16: 3C02 anti-DLL3 trispecific protein (other)
chain: B1 chain with S30R, E53A, A54D, D58I
notes: as for B1
B17: 3C03 anti-DLL3 trispecific protein (other)
chain: B1 chain with S30R, E53R, A54D, D58V, R101T, Y104G
notes: as for B1
B18: 3C05 anti-DLL3 trispecific protein (other)
chain: B1 chain with A23V, S27T, E53A, A54D, D58T, R101T, Y104R
notes: as for B1
B19: 3C06 anti-DLL3 trispecific protein (other)
chain: B1 chain with S27T, M34I, E53A, A54D, D61A
notes: as for B1
B20: 3C08 anti-DLL3 trispecific protein (other)
chain: B1 chain with S30K, E53L, A54D, R101T, T102G
notes: as for B1
B21: 3C09 anti-DLL3 trispecific protein (other)
chain: B1 chain with E53A, A54D, D58I
notes: as for B1
B22: 3C011 anti-DLL3 trispecific protein (other)
chain: B1 chain with S30R, E53A, A54H
notes: as for B1
B23: 3D01 anti-DLL3 trispecific protein (other)
chain: B1 chain with E53R, A54D, R101I
notes: as for B1
B24: 3D02 anti-DLL3 trispecific protein (other)
chain: B1 chain with S30R, E53R, A54D, R101I
notes: as for B1
B25: 3D03 anti-DLL3 trispecific protein (other)
chain: B1 chain with S30V, E53A, A54D, T57M
notes: as for B1

Biological target: T1, biotinylated human DLL3 protein …
Experiment: Octet BLI, single 50 nM
Summary of the method: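 Anti-DLL3 trispecific proteins were tested directly from conditioned medium in which their concentrations were known. The tip-captured DLL3 fusion served as the immobilised partner, and binding affinity toward human DLL3 was determined from the Octet measurement.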

| Binder | Kd [nM] |
| --- | --- |
| B1 | 15 |
| B2 | 16 |
| B3 | 12 |
| B4 | 6.3 |
| B5 | 12 |
| B6 | 10 |
| B7 | 12 |
| B8 | 24 |
| B9 | 7.2 |
| B10 | 15 |
| B11 | 7.3 |
| B12 | 20 |
| B13 | 12 |
| B14 | 9 |
| B15 | 14 |
| B16 | 9.1 |
| B17 | 4.9 |
| B18 | 8.2 |
| B19 | 10 |
| B20 | 5.9 |
| B21 | 7.8 |
| B22 | 14 |
| B23 | 10 |
| B24 | 12 |
| B25 | 11 |
